The values below come from patent publication US20030186258.

This data set addresses fusion protein PNP20aa-hGH (UniProt P01241).

Sequence of fusion protein PNP20aa-hGH (P01241 27-217): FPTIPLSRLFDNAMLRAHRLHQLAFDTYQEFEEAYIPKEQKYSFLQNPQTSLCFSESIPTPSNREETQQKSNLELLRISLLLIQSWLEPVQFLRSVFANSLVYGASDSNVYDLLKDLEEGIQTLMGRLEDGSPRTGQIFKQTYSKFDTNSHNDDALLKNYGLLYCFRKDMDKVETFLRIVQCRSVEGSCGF

On to “ss-Kex1 protease immobilised on Eupergit C250L resin”, for which the “digestion of the fused protein (SDS-PAGE), 15 hours” value is recorded as “almost complete: digestion is obtained after 15 hours”.
